# ± gives the standard deviation of the averaged measurements.
# Assay: total protein half-life in vivo (active degradation + dilution); higher = more stable protein
# [1] = E. coli NCM3722 delta-clpP delta-lon delta-hslV, growth: N-lim chemostat, doubling time 6 h
# [2] = E. coli NCM3722 delta-clpP, growth: N-lim chemostat, doubling time 6 h
# [3] = E. coli NCM3722 delta-hslV, growth: N-lim chemostat, doubling time 6 h
# [4] = E. coli NCM3722 delta-lon, growth: N-lim chemostat, doubling time 6 h
# [5] = E. coli NCM3722 delta-smpB, growth: N-lim chemostat, doubling time 6 h
# [6] = wild type E. coli NCM3722, growth: C-lim chemostat, doubling time 3 h
# [7] = wild type E. coli NCM3722, growth: C-lim chemostat, doubling time 6 h
# [8] = wild type E. coli NCM3722, growth: C-lim chemostat, doubling time 12 h
# [9] = wild type E. coli NCM3722, growth: N-lim chemostat, doubling time 6 h
# [10] = wild type E. coli NCM3722, growth: N-lim chemostat, doubling time 12 h
# [11] = wild type E. coli NCM3722, growth: P-lim chemostat, doubling time 6 h
# [12] = wild type E. coli NCM3722, growth: P-lim chemostat, doubling time 12 h
Sequence,total protein half-life in vivo [1] [h],total protein half-life in vivo [2] [h],total protein half-life in vivo [3] [h],total protein half-life in vivo [4] [h],total protein half-life in vivo [5] [h],total protein half-life in vivo [6] [h],total protein half-life in vivo [7] [h],total protein half-life in vivo [8] [h],total protein half-life in vivo [9] [h],total protein half-life in vivo [10] [h],total protein half-life in vivo [11] [h],total protein half-life in vivo [12] [h]
MDEYSPKRHDIAQLKFLCETLYHDCLANLEESNHGWVNDPTSAINLQLNELIEHIATFALNYKIKYNEDNKLIEQIDEYLDDTFMLFSSYGINMQDLQKWRKSGNRLFRCFVNATKENPASLSC [P0AAR0],5.61 ± 0.1,7.07,,,,,,,,,,
MDFFSVQNILVHIPIGAGGYDLSWIEAVGTIAGLLCIGLASLEKISNYFFGLINVTLFGIIFFQIQLYASLLLQVFFFAANIYGWYAWSRQTSQNEAELKIRWLPLPKALSWLAVCVVSIGLMTVFINPVFAFLTRVAVMIMQALGLQVVMPELQPDAFPFWDSCMMVLSIVAMILMTRKYVENWLLWVIINVISVVIFALQGVYAMSLEYIILTFIALNGSRMWINSARERGSRALSH [P0AFK2],6.22,6.15 ± 0.15,6.54,5.58 ± 0.22,5.5 ± 0.096,3.29 ± 0.33,6.14 ± 0.31,11.8 ± 2.2,6.05,11.5 ± 3,6.07 ± 0.39,
MDFSIMVYAVIALVGVAIGWLFASYQHAQQKAEQLAEREEMVAELSAAKQQITQSEHWRAECELLNNEVRSLQSINTSLEADLREVTTRMEAAQQHADDKIRQMINSEQRLSEQFENLANRIFEHSNRRVDEQNRQSLNSLLSPLREQLDGFRRQVQDSFGKEAQERHTLTHEIRNLQQLNAQMAQEAINLTRALKGDNKTQGNWGEVVLTRVLEASGLREGYEYETQVSIENDARSRMQPDVIVRLPQGKDVVIDAKMTLVAYERYFNAEDDYTRESALQEHIASVRNHIRLLGRKDYQQLPGLRTLDYVLMFIPVEPAFLLALDRQPELITEALKNNIMLVSPTTLLVALRTIANLWRYEHQSRNAQQIADRASKLYDKMRLFIDDMSAIGQSLDKAQDNYRQAMKKLSSGRGNVLAQAEAFRGLGVEIKREINPDLAEQAVSQDEEYRLRSVPEQPNDEAYQRDDEYNQQSR [P0AG71],6.83 ± 1.6,5.88 ± 0.096,4.5 ± 0.072,3.82 ± 0.52,3.36 ± 0.004,2.76 ± 0.076,4.87 ± 0.12,7.51 ± 0.44,3.91 ± 0.74,7.2 ± 1.9,4.59 ± 1.3,7.03 ± 0.77
MDICSRNKKLTIRRPAILVALALLLCSCKSTPPESMVTPPAGSKPPATTQQSSQPMRGIWLATVSRLDWPPVSSVNISNPTSRARVQQQAMIDKLDHLQRLGINTVFFQVKPDGTALWPSKILPWSDLMTGKIGENPGYDPLQFMLDEAHKRGMKVHAWFNPYRVSVNTKPGTIRELNSTLSQQPASVYVQHRDWIRTSGDRFVLDPGIPEVQDWITSIVAEVVSRYPVDGVQFDDYFYTESPGSRLNDNETYRKYGGAFASKADWRRNNTQQLIAKVSHTIKSIKPGVEFGVSPAGVWRNRSHDPLGSDTRGAAAYDESYADTRRWVEQGLLDYIAPQIYWPFSRSAARYDVLAKWWADVVKPTRTRLYIGIAFYKVGEPSKIEPDWMINGGVPELKKQLDLNDAVPEISGTILFREDYLNKPQTQQAVSYLQSRWGS,> 8,4.93 ± 1.2,1.61,2.787 ± 0.01,1.73 ± 0.075,,,,1.89 ± 0.55,3.44 ± 0.99,2.29 ± 0.57,4.65 ± 0.26
MDIPVNAAKPGRRRYLTLVMIFITVVICYVDRANLAVASAHIQEEFGITKAEMGYVFSAFAWLYTLCQIPGGWFLDRVGSRVTYFIAIFGWSVATLFQGFATGLMSLIGLRAITGIFEAPAFPTNNRMVTSWFPEHERASAVGFYTSGQFVGLAFLTPLLIWIQEMLSWHWVFIVTGGIGIIWSLIWFKVYQPPRLTKGISKAELDYIRDGGGLVDGDAPVKKEARQPLTAKDWKLVFHRKLIGVYLGQFAVASTLWFFLTWFPNYLTQEKGITALKAGFMTTVPFLAAFVGVLLSGWVADLLVRKGFSLGFARKTPIICGLLISTCIMGANYTNDPMMIMCLMALAFFGNGFASITWSLVSSLAPMRLIGLTGGVFNFAGGLGGITVPLVVGYLAQGYGFAPALVYISAVALIGALSYILLVGDVKRVG [P0AA76],,,,,,,4.54 ± 0.49,7.29 ± 0.43,,,,
MDKFRVQGPTKLQGEVTISGAKNAALPILFAALLAEEPVEIQNVPKLKDVDTSMKLLSQLGAKVERNGSVHIDARDVNVFCAPYDLVKTMRASIWALGPLVARFGQGQVSLPGGCTIGARPVDLHISGLEQLGATIKLEEGYVKASVDGRLKGAHIVMDKVSVGATVTIMCAATLAEGTTIIENAAREPEIVDTANFLITLGAKISGQGTDRIVIEGVERLGGGVYRVLPDRIETGTFLVAAAISRGKIICRNAQPDTLDAVLAKLRDAGADIEVGEDWISLDMHGKRPKAVNVRTAPHPAFPTDMQAQFTLLNLVAEGTGFITETVFENRFMHVPELSRMGAHAEIESNTVICHGVEKLSGAQVMATDLRASASLVLAGCIAEGTTVVDRIYHIDRGYERIEDKLRALGANIERVKGE [P0A749],4.88 ± 0.64,3.91 ± 0.28,3.48 ± 0.22,4.25 ± 0.55,3.39 ± 0.23,2.92 ± 0.043,6.05 ± 1.2,9.85 ± 0.48,3.47 ± 0.084,5.28 ± 0.25,5.53 ± 0.1,10.9 ± 0.56
MDKIFVDEAVNELQTIQDMLRWSVSRFSAANIWYGHGTDNPWDEAVQLVLPSLYLPLDIPEDMRTARLTSSEKHRIVERVIRRVNERIPVAYLTNKAWFCGHEFYVDERVLVPRSPIGELINNKFAGLISKQPQHILDMCTGSGCIAIACAYAFPDAEVDAVDISPDALAVAEQNIEEHGLIHNVIPIRSDLFRDLPKVQYDLIVTNPPYVDAEDMSDLPNEYRHEPELGLASGTDGLKLTRRILGNAADYLADDGVLICEVGNSMVHLMEQYPDVPFTWLEFDNGGDGVFMLTKEQLIAAREHFAIYKD,5.46 ± 2.1,3.84 ± 0.055,3.656 ± 0.0091,3.97 ± 0.38,3.9 ± 0.11,2.81 ± 0.12,5.74 ± 0.41,10 ± 0.21,3.85 ± 0.054,6.16 ± 0.26,5.56 ± 0.2,11 ± 1.2
MDKLLERFLNYVSLDTQSKAGVRQVPSTEGQWKLLHLLKEQLEEMGLINVTLSEKGTLMATLPANVPGDIPAIGFISHVDTSPDCSGKNVNPQIVENYRGGDIALGIGDEVLSPVMFPVLHQLLGQTLITTDGKTLLGADDKAGIAEIMTALAVLQQKKIPHGDIRVAFTPDEEVGKGAKHFDVDAFDARWAYTVDGGGVGELEFENFNAASVNIKIVGNNVHPGTAKGVMVNALSLAARIHAEVPADESPEMTEGYEGFYHLASMKGTVERADMHYIIRDFDRKQFEARKRKMMEIAKKVGKGLHPDCYIELVIEDSYYNMREKVVEHPHILDIAQQAMRDCDIEPELKPIRGGTDGAQLSFMGLPCPNLFTGGYNYHGKHEFVTLEGMEKAVQVIVRIAELTAQRK,4.47 ± 0.093,4.26 ± 0.49,3.88 ± 0.14,4.53 ± 0.13,4.04 ± 0.089,3.079 ± 0.019,6.32 ± 1.1,9.74 ± 0.59,3.97 ± 0.13,5.85 ± 0.25,5.38 ± 0.2,10.3 ± 0.14
MDLLIVLTYVALAWAVFKIFRIPVNQWTLATAALGGVFLVSGLILLMNYNHPYTFTAQKAVIAIPITPQVTGIVTEVTDKNNQLIQKGEVLFKLDPVRYQARVDRLQADLMTATHNIKTLRAQLTEAQANTTQVSAERDRLFKNYQRYLKGSQAAVNPFSERDIDDARQNFLAQDALVKGSVAEQAQIQSQLDSMVNGEQSQIVSLRAQLTEAKYNLEQTVIRAPSNGYVTQVLIRPGTYAAALPLRPVMVFIPEQKRQIVAQFRQNSLLRLKPGDDAEVVFNALPGQVFHGKLTSILPVVPGGSYQAQGVLQSLTVVPGTDGVLGTIELDPNDDIDALPDGIYAQVAVYSDHFSHVSVMRKVLLRMTSWMHYLYLDH [P0AFV0],3.52,,,,,,,,,,,
MDLSQLTPRRPYLLRAFYEWLLDNQLTPHLVVDVTLPGVQVPMEYARDGQIVLNIAPRAVGNLELANDEVRFNARFGGIPRQVSVPLAAVLAIYARENGAGTMFEPEAAYDEDTSIMNDEEASADNETVMSVIDGDKPDHDDDTHPDDEPPQPPRGGRPALRVVK [P0AFZ3],5.705 ± 0.0087,4.58 ± 0.2,3.9 ± 0.61,,3.43 ± 0.19,2.69 ± 0.14,5.89 ± 0.079,7.4 ± 0.38,3.26,6.17 ± 3,3.73 ± 0.69,7.51 ± 0.57
MDLTQLEMFNAVAEAGSITQAAAKVHRVPSNLTTRLRQLETELGVDLFIRENQRLRLSPAGHNFLRYSQQILALVDEARSVVAGDEPQGLFSLGSLESTAAVRIPATLAEFNRRYPKIQFSLSTGPSGTMLDGVLEGKLNAAFIDGPINHTAIDGIPVYREELMIVTPQGYAPVTRASQVNGSNIYAFRANCSYRRHFESWFHADGAAPGTIHEMESYHGMLACVIAGAGIALIPRSMLESMPGHHQVEAWPLAEQWRWLTTWLVWRRGAKTRPLEAFIQLLDVPDSARQGYQ,> 8,5.2,4.72,4.66,4.76,2.76,,8.27,,12.1 ± 2.1,6.44 ± 1,10.7 ± 2.1

# Source: the supplement of paper PMC11246515
